The record followed here is PMC8519809 (Cell Reports, 2021).

The target of one experiment is T1, MERS stem helix peptide (MERS-CoV).
T1 chain: DFQDELDEFFKNVST
The experiment in a line: crystal structure.

Experiment [1] concerns the target T2, SARS-CoV-2 stem helix peptide (SARS-CoV-2).
T2 chain: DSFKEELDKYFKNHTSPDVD
The experiment in a line: crystal structure.

B1: Fab22 (Fab, V domains shown)
VH: EVQLQQPGPVLVKPGASVRMSCKASGYRITDNFMNWVKQSHGKSLEWIGIINPYNGGTKYNQKFKGKATLTVDTSSSTAYMELNSLTSEDSAVYYCTRVRGNDYHGRAMDYWGQGTSVTVSS
VL: DVVLTQTPLSLPVNIGDQASISCKSTKSLLNRDGFTFLDWYLQKPGQSPQLLIYLVSNRFSGVPDRFSGSGSGTDFTLKISRVEAEDLGVYYCFQSNYLFTFGSGTKLEIK
Consider B1, for which the binding result in the experiment with MERS stem helix peptide was “binds”.

B2: LCmod-Fab22 (Fab, V domains shown)
VH: B1 VH
VL: B1 VL
As to B2, the binding result in experiment [1] was “binds”.
